The text below walks through data of article PMC6488228 (Nature microbiology, 2018).

One may read the stoichiometry N as a count of units in the complex or per binding partner.

Experiment [1] deals with VgrG1 (from pRSFDuet-1::vgrG1::eagT6) (Pseudomonas aeruginosa). Put plainly: cryo-EM structure.
Experiment [2] deals with Tse6 (full-length, C-terminal His8 tag) (Pseudomonas aeruginosa, UniProt Q9I739 1-430). Put plainly: cryo-EM structure.
Sequence of Tse6 (full-length, C-terminal His8 tag) (Q9I739 whole entry): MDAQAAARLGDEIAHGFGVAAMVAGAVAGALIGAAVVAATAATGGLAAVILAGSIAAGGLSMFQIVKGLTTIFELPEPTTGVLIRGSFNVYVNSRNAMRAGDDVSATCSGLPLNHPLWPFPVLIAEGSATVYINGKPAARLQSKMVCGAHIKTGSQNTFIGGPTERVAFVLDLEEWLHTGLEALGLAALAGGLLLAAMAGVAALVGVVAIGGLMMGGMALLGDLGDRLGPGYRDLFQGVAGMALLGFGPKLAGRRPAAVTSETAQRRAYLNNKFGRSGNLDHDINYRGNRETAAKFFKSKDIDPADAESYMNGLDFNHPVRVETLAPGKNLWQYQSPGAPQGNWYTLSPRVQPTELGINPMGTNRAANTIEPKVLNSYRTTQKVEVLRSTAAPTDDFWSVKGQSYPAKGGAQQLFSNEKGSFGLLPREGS

For the molecule “VgrG1 (from pRSFDuet-1::vgrG1::eagT6) (natural protein)”, in experiment [1], the stoichiometry N came to 3.

B1: EagT6 (from pRSFDuet-1::vgrG1::eagT6) (natural protein)
chain: MTLYRLHEADLEIPDAWQDQSINIFKLPASGPAREASFVISRDASQGDAPFADYVARQLENAEKQLPGFKLHKRWDINIHGHAAVLLDYQWQREGRDLMLRQVFIERRPAVLITTLTTTPADLPHHEPAWKQAMQTLVPRPTPS
In the case of B1, the binding result in experiment [2] is reported as “binds”.
